The series can be described thus: self-splicing fitness, log relative to wild type (ln ratio); higher = more splicing; Tetrahymena group I intron in knt gene, E. coli kanamycin selection, DiMSum; sequences stand for … in CUCUCU…GGAGGGAAAAGUUAUCAGGCAUGCACCUGGUAGCUAGUCUUUAAACCAAUAGAUUGCAUCGGUUUAAAAGGCAAGACCGUCAAAUUGCGGGAAAGGGGUCAACAGCCGUUCAGUACCAAGUCUCAGGGGAAACUUUGAGAUGGCCUUGCAAAGGGUAUGGUAAUAAGCUGACGGACAUGGUCCUAACCACGCAGCCAAGUCCUAAGUCAACAGAUCUUCUGUUGAUAUGGAUGCAGUUCACAGACUAAAUGUCGGUCGGGGAAGAUGUAUUCUUCUCAUAAGAUAUAGUCGGACCUCUCCUUAAUGGGAGCUAGCGGAUGAAGUGAUGCAACACUGGAGCCGCUGGGAACUAAUUUGUAUGCGAAAGUAUAUUGAUUAGUUUUGGAGUACUCGUGGUCG
The method in brief:
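Colonies from six replicate transformations of E. coli BL21(DE3) were pooled and amplicon-sequenced on an Illumina HiSeq 2500. The library placed an intron with all eight P1ex-region nucleotides randomised inside the knt kanamycin-resistance gene on pET-22b(+), and cells grew overnight at 37°C or 30°C on LB agar with or without 25 μg/mL kanamycin (plus 100 μg/mL carbenicillin, 50 μM IPTG, 0.2% rhamnose). Fitness is the DiMSum error-weighted combination of wild-type-normalised replicate fold changes, kanamycin versus none.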

Here are results for 38 sequences from the supplement of paper PMC7877785.

± gives the uncertainty stated by the source.

Consider UUGAAGCAAUAUUACGGAGG, for which the “self-splicing fitness (ln)” value was -0.866 ± 0.11 (30 °C) and -0.64 ± 0.14 (37 °C). On the same counts, the results for ACAUAGCAAUAUUACGUGCC are -2.1 ± 0.15 and -0.986 ± 0.19.

Consider UCGUAGCAAUAUUACGUUAU, for which the “self-splicing fitness (ln)” value is, setting by setting: (30 °C) -4.46 ± 0.42; (37 °C) -2.64 ± 0.34.

With CAGUAGCAAUAUUACGGUGU, the “self-splicing fitness (ln)” value reads like this: (30 °C) -3.63 ± 0.3; (37 °C) -0.678 ± 0.15. The corresponding values for UCUCAGCAAUAUUACGAUAU are -2.12 ± 0.14 and -1.75 ± 0.18. For UCUGAGCAAUAUUACGCCUA, the “self-splicing fitness (ln)” value (37 °C) is -0.697 ± 0.44. Regarding UGGGAGCAAUAUUACGGCCA, the “self-splicing fitness (ln)” value reads like this: (30 °C) -1.58 ± 0.13; (37 °C) -0.684 ± 0.16. On the same counts, the results for GGGAAGCAAUAUUACGCGUC are -3.64 ± 0.3 and -2.86 ± 0.47.

For GGGUAGCAAUAUUACGUCUA, the “self-splicing fitness (ln)” value is, setting by setting: (30 °C) -0.297 ± 0.15; (37 °C) 0.226 ± 0.16.

For the sequence UCGCAGCAAUAUUACGCCUA, the “self-splicing fitness (ln)” value by setting is: (30 °C) -1.21 ± 0.13; (37 °C) 0.0885 ± 0.14. On the same counts, the results for GGAAAGCAAUAUUACGUAUG are -2.27 ± 0.1 and -2.04 ± 0.15. On the same counts, the results for CCUGAGCAAUAUUACGCAAC are -2.76 ± 0.33 and -1.78 ± 0.27. The corresponding values for CCUAAGCAAUAUUACGUCGA are -2.67 ± 0.23 and -2.77 ± 0.25. Take UACCAGCAAUAUUACGCUUC: the “self-splicing fitness (ln)” value (30 °C) is -3.17 ± 0.23 and the “self-splicing fitness (ln)” value (37 °C) was -2.3 ± 0.24. As for UUCUAGCAAUAUUACGAUUC, the “self-splicing fitness (ln)” value (30 °C) is -1.98 ± 0.34 and the “self-splicing fitness (ln)” value (37 °C) was -2.5 ± 0.49. On to GAUCAGCAAUAUUACGGAGC, for which the “self-splicing fitness (ln)” value by setting is: (30 °C) -1.86 ± 0.094; (37 °C) -0.552 ± 0.099. The corresponding values for CGGAAGCAAUAUUACGGGCG are -0.796 ± 0.091 and -0.481 ± 0.12. As to GUAUAGCAAUAUUACGCCAG, the “self-splicing fitness (ln)” value reads like this: (30 °C) -3.17 ± 0.33; (37 °C) -1.26 ± 0.29.

UUAAAGCAAUAUUACGGCCG: the “self-splicing fitness (ln)” value came to 0.199 ± 0.14 (30 °C) and 0.0811 ± 0.16 (37 °C). The corresponding values for AGGAAGCAAUAUUACGGUAC are -3.99 ± 0.36 and -3.03 ± 0.25. On the same counts, the results for GGUUAGCAAUAUUACGGUAA are -1.02 ± 0.15 and -0.716 ± 0.14.

In the case of UGCGAGCAAUAUUACGUAAG, the “self-splicing fitness (ln)” value by setting is: (30 °C) -3.72 ± 0.26; (37 °C) -2.34 ± 0.28. On the same counts, the results for UCAGAGCAAUAUUACGUGAA are -2.01 ± 0.15 and -1.2 ± 0.21. The corresponding values for GGCGAGCAAUAUUACGCGAU are -3.7 ± 0.26 and -1.62 ± 0.19. The corresponding values for GAAAAGCAAUAUUACGAUAU are -1.15 ± 0.071 and -0.354 ± 0.093. Turning to UCACAGCAAUAUUACGUACC, the “self-splicing fitness (ln)” value by setting is: (30 °C) -2.45 ± 0.23; (37 °C) -2.37 ± 0.23. AGGGAGCAAUAUUACGACGU: the “self-splicing fitness (ln)” value by setting is: (30 °C) -2.14 ± 0.23; (37 °C) -1.63 ± 0.19. The corresponding values for AAGAAGCAAUAUUACGUGCC are -1.01 ± 0.11 and -1.14 ± 0.11. The corresponding values for CCCUAGCAAUAUUACGUUGG are -3.97 ± 0.23 and -2.48 ± 0.2. On the same counts, the results for CUCCAGCAAUAUUACGUUGU are -4.22 ± 0.15 and -3.49 ± 0.21.

With GCGGAGCAAUAUUACGCCCG, for the setting “30 °C”, the “self-splicing fitness (ln)” value is -1.19 ± 0.5. For the sequence UGGGAGCAAUAUUACGCUCG, the “self-splicing fitness (ln)” value (37 °C) was -1.25 ± 0.46. On to CUGUAGCAAUAUUACGAAGU, for which the “self-splicing fitness (ln)” value is, setting by setting: (30 °C) -2.13 ± 0.23; (37 °C) -1.82 ± 0.27. On the same counts, the results for CCUGAGCAAUAUUACGAUAG are -1.55 ± 0.085 and -0.775 ± 0.089. GAUUAGCAAUAUUACGCACG: the “self-splicing fitness (ln)” value is -1.36 ± 0.12 (30 °C) and -1.14 ± 0.14 (37 °C). The corresponding values for AUCCAGCAAUAUUACGUAUG are -3.79 ± 0.2 and -2.05 ± 0.16.

AAAGAGCAAUAUUACGAUGC: the “self-splicing fitness (ln)” value was -2.54 ± 0.2 (30 °C) and -1.96 ± 0.27 (37 °C). On the same counts, the results for AUAAAGCAAUAUUACGCGUC are -4.6 ± 0.46 and -2.73 ± 0.29.
